The source of these data is the DeepSol protein solubility set.

The series is described as follows: soluble on expression in E. coli; label from the status in PepcDB or PDB records.
For the sequence “MKLARFLAKGRVHQGVYREGLLLDEAGEAHRPEDVTWLLPFTPGKILGVALNYADHAEELGLSRPEEPALFWKPNTSLLPHKGVVLYPKGARFVHYEVELAVVVGRPMKRVRAKDALDYVLGYTIANDLVARDYVTNTFRPPIRAKGRDTFLPLGPFLVVEEVEDPQDLWLRAYVNGELRQEGHTSRMLYSVAELLEFISEFMTLEPYDVLLTGTPKGISQVRPGDVMRLEIEGLGALENPIEEEP”, the “soluble on expression in E. coli” value is listed as “soluble”. Take “MSLNRGIGVVTLSTLLASPSALARENPPAEDEPAALEALVVTGEKRERSLKDTASSVSLTSARDIDRKQTGNASVAEVINGSPNVVYTDSVGAPIIRGQDTQGPNNGQNVFWGGTVPRATINLDGHYLNYNEMFFGATSVWDVDSIEVFRGPQTTSQGANAIAGAIIVNTKDPTFSPEAAYQAEIGSYHSRRSSIAVSGPLAQDFAGRLAVDYAGRDTFIDYDNPKFQDSGTDQDFRALNARAKLLWLPSGIPGLESKFTFSHNDNNRPTQEAATRPFDKLDHRSTTMPSWEQDTNTSILDVAYDLDNGIRLFNQAQYSLSSVHRTTGAGGEGDADIRQKNASNESRISFGEQEDRISGMGGVYYARTRTDETLHLRGLSAFDDTKKNLGVFGELNYRLSDRWTLTTGLRYQEDRIERSGNSVLAPRPLDYQKTFSAFLPKVSLAFAATPDWTVGGLVSRGYNPGGVSLNLTTRNWAYFKEETIWNYELFTRASLLDGRLLLNGNLFFMDFKDAQYNIPVVVSPGVAQSYTINAEKAHAYGMELDLDYRLRDDLRLKASAGVLRTRIDEMSGNTGYEHNEFARSPGYTLSFGPSWDVTERLNLNAQVRYLDGYYSDTANTKAYSIKAYTLTDARASYRFNDQVQLYGYVKNVFDDRSPTYMQENRGIGGIEASMTQPRTLGIGIKGTFEGHHHHHH”: the “soluble on expression in E. coli” value is recorded as “not soluble”. As to “MKFEGIYTPAITPLSADGSIDTQAFAEVLEFLVESKVHGIVIGGSTGEYYAHTAEERLALAAHASEVIAGRLPLVVGTGAIRTEDSLAYAEAARAIGADAILVGSPPYALPTSREIAEHVLAVDRAAGLPIMLYNYPARMGVEMDEAFFAAVAGCRNIVAIKESSGSTAQLHRLACRHPRIALSCGWDDQALEFFAWGARSWVCAGSNFIPGEHLALYQACVVENDFAKGRRIMAAMMPLMDFLESGHFVQSIKHGCELAGLRAGGVRAPLKALDEAGKAALAEIVARLKGEVAR”, the “soluble on expression in E. coli” value is listed as “not soluble”. In the case of “MDVNPTLLFLKVPAQNAISTTFPYTGDPPYSHGTGTGYTMDTVNRTHQYSEKGRWTTNTETGAPQLNPIDGPLPEDNEPSG”, the “soluble on expression in E. coli” value is “soluble”. Consider “MAHHHHHHMEALETLRSIAPVSSTEEIQAMIKSAKNAREVRMVLERIVYTHHLCFDLLNGHGYRVAVLQTLTAVAPHASCMHEWFDCVARFRRLGFVLTRTYAAEGFTTIRQWLSHEFFHRGRSPSLVTEGTAHIKELMQWCLEDRLVFDHVLYTRIVFLLTMIVSYLDRQNLYRASFPEDFAKRDGIVVEWIVTNERCVDFDECVLQCDAVMEELLEQMRQDIPSRPPFSFMYRLADYYFATDNVEKMIAVMEDAESYGVSVAESTTAKLMQMACAFNSPQVPELLLRWRVLPPQCVLATPDMSRLLFFYSRSGGGLPCPHCGEAYNHRNVSVYCWLQTPPHQRQCPALRKARVQKGELEESRELPQNADWSAQAFGLFELSRARAIEWTAVEWRGFLLCCIFSPRAMEAKALMDQYLDVTEMDDFLRAACIRLLRHHAPAEAWPTLKKWKQQQCNMSPIALQEALMAASMVADAATRLEHMKAVWQLLLEKDSYVMPLTRRFYQRRMEELATSYAAAAASGDGKESQGGLATEREEAQLMQRVVEMQPRHVSLLDMKDSAADFVVGTRRKNVYRPR”, for which the “soluble on expression in E. coli” value is recorded as “not soluble”.

As for “MGSDKIHHHHHHMGQPFVHPTGVTIYNPEKCFNGYTIMQAPGLGCVLIDMNGNVVRVFKDLHGFPNKLLPGGYVMGSRGRRNGKFGYQDQIDLVQVDWDGQVVWEFAKKEYIEDEGEKPQWMARQHHDYQREGNPVGYYVPGMECKTNSGNTLILSHQNCYHKKISDKQLLDDVIIEVDWDGNIVWEWHAVDHFHEYGFSAAAKLALYRNPNMHEAGGGMGDWMHINSASVLGPNKWYDKGDERFHPDNIIWDAREANIMAIISKETGKVVWKMGPDFAQDKKLRKIGQIIGQHHVHMIPQGLPGAGNILIFDNGGWAGYGAPNNVSKDGTKVDMADRSRVLELNPVTMEVVWQLKASELMDYGQPGISDYRFYSPLTSAAQRLPNGNTLITEGCGGRFFEVTRMKEVVWEFISPFNANPATIYYRAYRYPYSYVPQLPEPKETPVPMLDIRKFRVPGAASCEVQHVVGVEGTIGYPAMQQACVAAADQDLSLKDDDDDDLFSRSF”, the “soluble on expression in E. coli” value is “not soluble”. In the case of “GMYNPVGVAAIGLGRWAYVMADAYTKSEKLKLVTCYSRTEDKREKFGKRYNCAGDATMEALLAREDVEMVIITVPNDKHAEVIEQCARSGKHIYVEKPISVSLDHAQRIDQVIKETGVKFLCGHSSRRLGALRKMKEMIDTKEIGEVSSIEAVFSNERGLELKKGNWRGEPATAPGGPLTQLGVHQIDNLQFLLGPVARVFNFGKPMYTEVENITVNQTLLEFEDGKQAYLGTNWACPGVFSINVYGTKANLFYQLDFSWWSNSDVTDEHSTLIKREFASMSDDPDNRILRDVKVDFESVDHLRVEVEEVADVIRNGGETEIGAEASLRNLAVVLAAVKSVHEKRPVEIAEIIG”, the “soluble on expression in E. coli” value was “soluble”.

For the sequence “IGQVNYNIGFNMADSRSFVDKYPNKSKSLSTYYKDQELGAIWGYVTHGIAKSQSEMDEWTKDNKPSWGSGWGEGDIMFEDLNGDKVINEGANTVDDPGDRKIIGNSTPRFRFGLDLGVEWKGIDFSMFWQGVAKRDLWLDGPMFWGISGGEWQSTGLKEHLDYYRPENTTSVFGPNTNAYFPKMYMSKDMNQKVQTRYLQNGAYARLKNIQLGYTFPTQIINKLHMQKLRVYVSAENVLTITSLPSGFDPETTYSNYSDGNSGKTYPLQTTISFGLNATF”, the “soluble on expression in E. coli” value is on record as “not soluble”. On to “NEHSKWMILDRVRFTLDGLECDKIGVGYEAYRNQPNFCSAPYGSCLGNQLWNFWEYDKRRIDNSQLPLYIVEGRFQRINQHPNAGAHTFSVGVTEDLNTNLLIELMADDIEYVYQRSPAKIIDIRVPTFEALSQVGIANVTTKNIGKLESSYSLTFKCSSGISPVEEQLYTMKPDEVIARSFELRSTTDQAAMHQCEAILKASDFSELDREGYRFSTAATVYNNGAQIGPTNDHKKGGFWDSIKALWRNLIDFLTGRLCWTKCPRLFDFGCHI”, for which the “soluble on expression in E. coli” value was “not soluble”.

For “MHHHHHHSSGVDLGTENLYFQSMADSEALPSLAGDPVAVEALLRAVFGVVVDEAIQKGTSVSQKVCEWKEPEELKQLLDLELRSQGESQKQILERCRAVIRYSVKTGHPRFFNQLFSGLDPHALAGRIITESLNTSQYTYEIAPVFVLMEEEVLRKLRALVGWSSGDGIFCPGGSISNMYAVNLARYQRYPDCKQRGLRTLPPLALFTSKECHYSIQKGAAFLGLGTDSVRVVKADERGKMVPEDLERQIGMAEAEGAVPFLVSATSGTTVLGAFDPLEAIADVCQRHGLWLHVDAAWGGSVLLSQTHRHLLDGIQRADSVAWNPHKLLAAGLQCSALLLQDTSNLLKRCHGSQASYLFQQDKFYDVALDTGDKVVQCGRRVDCLKLWLMWKAQGDQGLERRIDQAFVLARYLVEEMKKREGFELVMEPEFVNVCFWFVPPSLRGKQESPDYHERLSKVAPVLKERMVKEGSMMIGYQPHGTRGNFFRVVVANSALTCADMDFLLNELERLGQDL”, the “soluble on expression in E. coli” value was “soluble”. As for “MGTTVEGGRSGPRYVQVADEIVQQIRAGVLKPGDMVPSESEMVDRYGVSGGTIRKAMVEVRASGLVETRHGKGSIVKDRPPVRHRSSDRFRRSLRQGGKAAYLAESEQSGATAKVSVLYIGPMEAPADAAQRLGVPAGTQVLARRRLYFRNGTPVETASSYLPWDVVKDIPELFAENPGGGGIYARLEDHGHEFAEFVETLQARPASKAEATELALSPGAPVVHLIREARTAAGLVVEVCDTLMAADQFVFEYRIPAAD”, the entry is “not soluble”. “MGSDKIHHHHHHMSIINDEKLRKYVPEERLDKVKERLEILDTYDLSYITSNFIWKGRRFSPEQVWPIKIYYGKADRELAEKIEKEFRRFVALTIVFPKRLFTASGAVDLYWHFLILHTKEYEKFSKSVWGIPRYDNVLLKKLLNNDDNSFRLRFNLKPDNVNEITILPKKALESLDDKTLDRVLMLERLDLSPISENLLHTIDEFKFVPEQRFPLIAHFGKLDNNIVKRIELEFKKWMALNIAYGGKELNYAAPSGVVDMYFHLFILHTILYKQFCEIFFGKFIHHPLGELF”: the “soluble on expression in E. coli” value is “not soluble”.
